Changes are numbered by the printed parent chain.
How the values were obtained:
Experiment in all cases: cell_activity; endogenous locus, 293H
SCOH-SH43-b12-C = molecular target: T1, SCOH-SH43-b12-C (artificial)
T1 chain: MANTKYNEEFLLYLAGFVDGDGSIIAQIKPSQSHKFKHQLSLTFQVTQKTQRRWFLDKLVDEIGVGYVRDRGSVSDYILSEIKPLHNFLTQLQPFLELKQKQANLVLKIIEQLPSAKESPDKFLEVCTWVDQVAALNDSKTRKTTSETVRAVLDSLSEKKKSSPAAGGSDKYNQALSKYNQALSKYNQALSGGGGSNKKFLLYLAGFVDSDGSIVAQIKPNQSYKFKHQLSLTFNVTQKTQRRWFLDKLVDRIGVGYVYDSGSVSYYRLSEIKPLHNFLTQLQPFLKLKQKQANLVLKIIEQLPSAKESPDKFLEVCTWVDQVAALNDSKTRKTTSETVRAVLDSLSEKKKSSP
Protocol: (§1) Human embryonic kidney 293H cells (Invitrogen) were plated at a density of 1×10⁶ cells per 10 cm dish in complete medium (DMEM supplemented with 2 mM L-glutamine, penicillin (100 UI/ml), streptomycin (100 μg/ml), amphotericin B (Fongizone) (0.25 μg/ml) (Invitrogen-Life Science) and 10% FBS). The next day, cells were transfected with 3 μg of single-chain meganuclease expression vector using Lipofectamine 2000 transfection reagent (Invitrogen) according to the supplier's protocol. After 2 to 6 days of incubation at 37° C., cells were trypsinized and genomic DNA extraction was performed with the DNeasy blood and tissue kit (Qiagen) according to the supplier's protocol.
(§2) Human embryonic kidney 293H cells were transfected with a plasmid expressing a single-chain safe harbor meganuclease. After 2 to 6 days of incubation at 37° C., genomic DNA was isolated and PCR was used to amplify the genomic sequence surrounding the meganuclease target site. Sequences were then analyzed for the presence of insertions or deletions events (InDel) in the cleavage site of each safe harbor target.

SCOH-SH4-b1-C = molecular target: T2, SCOH-SH4-b1-C (artificial)
T2 chain: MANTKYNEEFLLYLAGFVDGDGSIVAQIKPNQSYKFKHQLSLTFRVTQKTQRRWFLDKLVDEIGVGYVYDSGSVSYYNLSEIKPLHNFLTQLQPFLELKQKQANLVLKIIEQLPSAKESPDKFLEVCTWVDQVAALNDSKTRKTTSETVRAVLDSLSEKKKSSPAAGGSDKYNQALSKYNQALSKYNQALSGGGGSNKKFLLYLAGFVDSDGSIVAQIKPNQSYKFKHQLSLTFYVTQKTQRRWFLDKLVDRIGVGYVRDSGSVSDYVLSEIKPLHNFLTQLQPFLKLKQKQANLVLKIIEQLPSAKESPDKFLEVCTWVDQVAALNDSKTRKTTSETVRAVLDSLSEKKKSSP
Protocol: as §1, §2

SCOH-SH31.2 = molecular target: T3, SCOH-SH31.2 (artificial)
T3 chain: T1 chain with S31N, H34R, Q39A, S41Q, V215I, N235K, Y259R, S261N, Y266D, R268I
Protocol: as §1, §2

SCOH-SH41-b11-C = molecular target: T4, SCOH-SH41-b11-C (artificial)
T4 chain: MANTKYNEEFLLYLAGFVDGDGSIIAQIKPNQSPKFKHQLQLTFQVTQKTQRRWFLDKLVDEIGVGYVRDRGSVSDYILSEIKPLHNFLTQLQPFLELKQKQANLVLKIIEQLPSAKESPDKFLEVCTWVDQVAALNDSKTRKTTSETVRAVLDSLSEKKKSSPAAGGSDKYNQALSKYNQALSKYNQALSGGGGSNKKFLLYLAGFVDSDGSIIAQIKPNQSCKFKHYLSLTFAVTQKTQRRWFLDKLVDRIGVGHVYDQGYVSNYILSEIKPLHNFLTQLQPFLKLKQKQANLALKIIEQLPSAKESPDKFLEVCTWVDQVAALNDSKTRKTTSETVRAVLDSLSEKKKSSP
Protocol: as §1, §2

SCOH-SH3-b1-C = molecular target: T5, SCOH-SH3-b1-C (artificial)
T5 chain: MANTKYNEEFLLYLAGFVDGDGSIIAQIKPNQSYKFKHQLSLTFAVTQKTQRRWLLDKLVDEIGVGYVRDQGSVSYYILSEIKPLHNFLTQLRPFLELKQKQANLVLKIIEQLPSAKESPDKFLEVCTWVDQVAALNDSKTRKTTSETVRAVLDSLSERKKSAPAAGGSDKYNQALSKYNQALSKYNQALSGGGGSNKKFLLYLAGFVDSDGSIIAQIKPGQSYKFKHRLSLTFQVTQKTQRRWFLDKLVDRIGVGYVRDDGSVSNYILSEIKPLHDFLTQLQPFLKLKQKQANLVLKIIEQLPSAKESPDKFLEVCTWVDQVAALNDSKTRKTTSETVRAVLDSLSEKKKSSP
Protocol: as §1, §2

SCOH-SH39-b11-C = molecular target: T6, SCOH-SH39-b11-C (artificial)
T6 chain: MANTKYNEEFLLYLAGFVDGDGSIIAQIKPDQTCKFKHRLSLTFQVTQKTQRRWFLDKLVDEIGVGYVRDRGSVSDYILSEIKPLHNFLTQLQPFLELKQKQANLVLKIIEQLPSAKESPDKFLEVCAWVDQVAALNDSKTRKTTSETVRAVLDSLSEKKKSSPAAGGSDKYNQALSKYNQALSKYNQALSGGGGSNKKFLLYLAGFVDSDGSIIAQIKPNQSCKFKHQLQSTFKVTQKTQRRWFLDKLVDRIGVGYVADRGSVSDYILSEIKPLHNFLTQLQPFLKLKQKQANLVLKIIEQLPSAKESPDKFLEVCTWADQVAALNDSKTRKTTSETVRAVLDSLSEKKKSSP
Protocol: as §1, §2

SCOH-SH44-b11-C = molecular target: T7, SCOH-SH44-b11-C (artificial)
T7 chain: T1 chain with S31R, V215I, N235K, Y266N, R268I, E271K
Protocol: as §1, §2

SCOH-SH19 = molecular target: T8, SCOH-SH19 (artificial)
T8 chain: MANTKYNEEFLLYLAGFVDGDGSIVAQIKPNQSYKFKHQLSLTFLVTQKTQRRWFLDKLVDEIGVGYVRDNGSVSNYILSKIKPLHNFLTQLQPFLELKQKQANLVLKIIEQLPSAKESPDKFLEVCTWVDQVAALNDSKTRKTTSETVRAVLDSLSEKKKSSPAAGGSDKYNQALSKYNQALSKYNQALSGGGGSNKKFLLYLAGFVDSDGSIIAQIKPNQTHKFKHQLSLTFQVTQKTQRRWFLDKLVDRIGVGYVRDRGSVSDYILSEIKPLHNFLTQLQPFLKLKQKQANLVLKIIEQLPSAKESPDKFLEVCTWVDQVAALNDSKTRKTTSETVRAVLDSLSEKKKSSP
Protocol: as §1, §2

SCOH-SH52-b12-C = molecular target: T9, SCOH-SH52-b12-C (artificial)
T9 chain: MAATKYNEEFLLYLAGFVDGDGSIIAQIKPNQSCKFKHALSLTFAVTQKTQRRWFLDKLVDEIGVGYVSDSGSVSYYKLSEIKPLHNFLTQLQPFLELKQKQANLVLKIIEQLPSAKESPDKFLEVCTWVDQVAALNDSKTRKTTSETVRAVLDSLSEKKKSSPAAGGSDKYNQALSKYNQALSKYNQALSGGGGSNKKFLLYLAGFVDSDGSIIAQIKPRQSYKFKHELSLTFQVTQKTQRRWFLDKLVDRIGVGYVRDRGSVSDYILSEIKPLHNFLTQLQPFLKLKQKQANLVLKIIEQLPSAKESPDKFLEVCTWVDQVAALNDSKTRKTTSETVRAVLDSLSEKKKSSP
Protocol: as §1, §2

SCOH-SH42-b11-C = molecular target: T10, SCOH-SH42-b11-C (artificial)
T10 chain: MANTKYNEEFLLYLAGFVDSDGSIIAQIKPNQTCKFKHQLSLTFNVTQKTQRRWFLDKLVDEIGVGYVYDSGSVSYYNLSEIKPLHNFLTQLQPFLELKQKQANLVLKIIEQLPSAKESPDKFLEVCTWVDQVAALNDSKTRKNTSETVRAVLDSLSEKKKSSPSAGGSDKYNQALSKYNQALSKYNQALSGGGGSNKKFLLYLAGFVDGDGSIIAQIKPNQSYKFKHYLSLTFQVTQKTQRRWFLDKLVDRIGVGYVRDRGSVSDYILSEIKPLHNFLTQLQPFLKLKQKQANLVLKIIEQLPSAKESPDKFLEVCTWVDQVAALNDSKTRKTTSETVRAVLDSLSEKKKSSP
Protocol: as §1, §2

B1: SH43 target (dsDNA)
DNA 1: TAAATACGTCTTACATTATTTTGC
DNA 2: GCAAAATAATGTAAGACGTATTTA
- activity (SCOH-SH43-b12-C): 0.4 % InDels

B2: SH4 target (dsDNA)
DNA 1: TTAAAACACTGTACACCATTTTGA
DNA 2: TCAAAATGGTGTACAGTGTTTTAA
- activity (SCOH-SH4-b1-C): 0.2 % InDels

B3: SH31 target (dsDNA)
DNA 1: TTGTAATGTCTTACAAGGTTTTAA
DNA 2: TTAAAACCTTGTAAGACATTACAA
- activity (SCOH-SH31.2): 5 % InDels

B4: SH41 target (dsDNA)
DNA 1: CCTCTCTTAGGTGAGACGGTACAT
DNA 2: ATGTACCGTCTCACCTAAGAGAGG
- activity (SCOH-SH41-b11-C): 0.4 % InDels

B5: SH3 target (dsDNA)
DNA 1: CCAATACAAGGTACAAAGTCCTGA
DNA 2: TCAGGACTTTGTACCTTGTATTGG
- activity (SCOH-SH3-b1-C): 0.8 % InDels

B6: SH39 target (dsDNA)
DNA 1: TCCTTCTGTCTTAAGAGATTTATC
DNA 2: GATAAATCTCTTAAGACAGAAGGA
- activity (SCOH-SH39-b11-C): 1.5 % InDels

B7: SH44 target (dsDNA)
DNA 1: AAGAAATGTCTCACAGAATTTTAC
DNA 2: GTAAAATTCTGTGAGACATTTCTT
- activity (SCOH-SH44-b11-C): 3.6 % InDels

B8: SH19 target (dsDNA)
DNA 1: GCAAAACATTGTAAGACATGCCAA
DNA 2: TTGGCATGTCTTACAATGTTTTGC
- activity (SCOH-SH19): 0.9 % InDels

B9: SH52 target (dsDNA)
DNA 1: CTCCACTGTCTTACCTAATCCAGC
DNA 2: GCTGGATTAGGTAAGACAGTGGAG
- activity (SCOH-SH52-b12-C): 3.2 % InDels

B10: SH42 target (dsDNA)
DNA 1: TATATCCCATGTGAGACATGCAGT
DNA 2: ACTGCATGTCTCACATGGGATATA
- activity (SCOH-SH42-b11-C): 0.7 % InDels

— patent US20110239319, “Use of Endonucleases for Inserting Transgenes Into Safe Harbor Loci” (published 2011)
